Consider 14 molecules from patent US20250195685A1 (CAPSTAN THERAPEUTICS, published 2025).

In test [1] the target is T1, human CD8αα homodimer, recombinant protein (Acro Biosystems) (human, UniProt P01732 22-182).
T1 construct: also called CD8αα antigen; biotinylated CD8α recombinant protein (CDA-H82E3)
The test is described as follows: BLI kinetics, F(ab) on biotinylated CD8α (SA-XT sensor), 1:1 fit, 30 °C. On the procedure: (§1) Biolayer interferometry kinetic assays were performed using a GatorBio Gator Plus BLI system. Kinetic buffer containing PBS plus 0.1% Tween 20 and 0.2% BSA was used for calculating the baseline. To measure the binding kinetics of anti-CD8α antibody fragment (Fab), streptavidin-immobilized SA-XT sensors (#160029, Gator Bio) were prehydrated in the kinetic buffer and loaded with […] biotinylated CD8α recombinant protein (CDA-H82E3, Acro Biosystems) at a spin speed of 400 rpm to a threshold response of 10 nm. The sensors were then incubated in the kinetic buffer for 300 s to acquire a baseline measurement prior to each association. […] The antigen-loaded sensors were incubated in the diluted solutions to capture Fab fragments for 300 s to record the association phase. Sensors were finally incubated in the kinetic buffer for 900 s to record the dissociation phase. The spin speed for all steps except the antigen loading step was 1000 rpm. The temperature of the performed assays was either 30° C. or 37° C. during the association and dissociation phases. Sensor data were baseline subtracted, and global curve fitting of the kinetic data from six different analyte concentrations at a 1:1 monovalent binding model was performed using GatorOne software (version v2.10) to determine kinetic rate constants (kₒₙ and koff) and equilibrium dissociation constants (KD) of the analyzed antibodies.

For test [2], the target named is T1, human CD8αα homodimer, recombinant …. The test is described as follows: BLI kinetics, F(ab) on biotinylated CD8α (SA-XT sensor), 1:1 fit, 37 °C [CONT'ED]. The method, then: as §1
The target is the same in test [3]. The test is described as follows: BLI kinetic rate analysis, Fab fragment (temperature not given). On the procedure: as §1

T1 sequence (P01732 22-182 limits assumed): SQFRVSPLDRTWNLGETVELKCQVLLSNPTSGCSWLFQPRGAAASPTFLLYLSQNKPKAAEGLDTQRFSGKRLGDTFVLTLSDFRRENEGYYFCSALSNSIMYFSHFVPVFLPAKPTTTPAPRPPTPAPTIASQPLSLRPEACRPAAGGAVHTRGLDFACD

B1: CDB1017p (Fab, V domains shown)
VH: EVQLQQSGPELVKPGASVKISCKASRYTFTDYNLHWVKLSHEKSLEWIGFIYPYNGGTGYNQKFKNKAKLTVDYSSSTAYMELRSLTSVDAAVYYCARDHRYNEGVSFDYWGQGTTLTVSS
VL: NIVLTQSPASLAVSLGQRATISCRASESVDGFGNSFMNWYQQKPGQSPKLLIYLASNLESGVPARFSGSGSRTDFTLTIDPVEADDAATYYCQQNNEDPYTFGGGTKLEIK
notes: CDB1017p [sic]; also called CBD1017p; mouse CT8 F(ab)
B1: in test [1], the Kd came out at 1.19 nM, the koff was determined as 7.76e-05 s⁻¹ and the kon is 65100 M⁻¹ s⁻¹.

B2: CBD1032 (Fab, V domains shown)
VH: QVQLVQSGAEVKKPGASVKVSCKASRYTFTDYNLHWVRQAPGQGLEWMGFIYPYNGGTGYAQKFQGRVTMTRDTSTSTVYMELSSLRSEDTAVYYCARDHRYNEGVSFDYWGQGTTVTVSS
VL: DIQMTQSPSSLSASVGDRVTITCRASESVDGFGNSFMNWYQQKPGKAPKLLIYLASNLESGVPSRFSGSGSGTDFTLTISSLQPEDFATYYCQQNNEDPYTFGQGTKLEIK
notes: also called h1017-H1/L1 F(ab)
For B2, in test [1], the Kd is 1.84 nM, the koff is 9.45e-05 s⁻¹ and the kon is 51500 M⁻¹ s⁻¹. Further, in test [2], the Kd was determined as 1.59 nM, the koff worked out at 5.35e-05 s⁻¹ and the kon was found to be 33700 M⁻¹ s⁻¹.

B3: CBD1037 (Fab, V domains shown)
VH: QVQLVQSGAEVKKPGASVKVSCKASRYTFTDYNLHWVRQAPGQGLEWMGFIYPYNGGTGYAQKFQGRVTMTVDYSTSTAYMELSSLRSEDTAVYYCARDHRYNEGVSFDYWGQGTTVTVSS
VL: DIQLTQSPSSLSASVGDRATITCRASESVDGFGNSFMNWYQQKPGKAPKLLIYLASNLESGVPSRFSGSGSGTDFTLTISSVQPEDFATYYCQQNNEDPYTFGQGTKLEIK
notes: also called h1017-H4/L2 F(ab)
Consider B3, for which, in test [1], the Kd came out at 1.72 nM, the koff worked out at 0.000114 s⁻¹ and the kon came out at 66000 M⁻¹ s⁻¹. For the same molecule, in test [2], the Kd turned out to be 1.27 nM, the koff was found to be 9.71e-05 s⁻¹ and the kon came to 76800 M⁻¹ s⁻¹.

B4: CBD1443 Fab (VL D30E of CBD1033) (Fab, V domains shown)
VH: QVQLVQSGAEVKKPGASVKVSCKASRYTFTDYNLHWVRQAPGQGLEWMGFIYPYNGGTGYAQKFQGRVTMTVDTSTSTAYMELSSLRSEDTAVYYCARDHRYNEGVSFDYWGQGTTVTVSS
VL: DIQLTQSPSSLSASVGDRATITCRASESVEGFGNSFMNWYQQKPGKAPKLLIYLASNLESGVPSRFSGSGSGTDFTLTISSVQPEDFATYYCQQNNEDPYTFGQGTKLEIK
As to B4, in test [3], the Kd is 10 nM, the koff was determined as 0.000284 s⁻¹ and the kon is 28400 M⁻¹ s⁻¹.

B5: CBD1381 (Fab, V domains shown)
VH: QVQLVQSGAEVKKPGASVKVSCKASRYTFTDYNLHWVRQAPGQGLEWMGFIYPYQGGTGYAQKFQGRVTMTVDTSTSTAYMELSSLRSEDTAVYYCARDHRYNEGVSFDYWGQGTTVTVSS
VL: DIQLTQSPSSLSASVGDRATITCRASESVDGFGNSFMNWYQQKPGKAPKLLIYLASNLESGVPSRFSGSGSGTDFTLTISSVQPEDFATYYCQQNNEDPYTFGQGTKLEIK
Turning to B5, in test [3], the Kd stood at 1.22 nM, the koff was determined as 9.59e-05 s⁻¹ and the on-rate (kon) amounted to 78600 M⁻¹ s⁻¹.

B6: CBD1382 (Fab, V domains shown)
VH: QVQLVQSGAEVKKPGASVKVSCKASRYTFTDYNLHWVRQAPGQGLEWMGFIYPYAGGTGYAQKFQGRVTMTVDTSTSTAYMELSSLRSEDTAVYYCARDHRYNEGVSFDYWGQGTTVTVSS
VL: DIQLTQSPSSLSASVGDRATITCRASESVDGFGNSFMNWYQQKPGKAPKLLIYLASNLESGVPSRFSGSGSGTDFTLTISSVQPEDFATYYCQQNNEDPYTFGQGTKLEIK
On to B6, for which, in test [3], the Kd was found to be 0.86 nM, the koff was determined as 6.91e-05 s⁻¹ and the kon is 80300 M⁻¹ s⁻¹.

B7: CBD1034 (Fab, V domains shown)
VH: QVQLVQSGAEVKKPGASVKVSCKASRYTFTDYNLHWVRQAPGQGLEWMGFIYPYNGGTGYAQKFQGRVTMTVDTSTSTAYMELSSLRSEDTAVYYCARDHRYNEGVSFDYWGQGTTVTVSS
VL: DIQLTQSPSSLSASVGDRATITCRASESVDGFGNSFMNWYQQKPGKAPKLLIYLASNLESGVPSRFSGSGSRTDFTLTISSVQPEDFATYYCQQNNEDPYTFGQGTKLEIK
notes: also called h1017-H2/L3 F(ab)
With B7, in test [1], the Kd is 9.9 nM, the koff came out at 0.000204 s⁻¹ and the kon turned out to be 20900 M⁻¹ s⁻¹. Moreover, in test [2], the Kd was 1.82 nM, the koff is 0.000187 s⁻¹ and the kon was 103000 M⁻¹ s⁻¹.

B8: CBD1380 (Fab, V domains shown)
VH: QVQLVQSGAEVKKPGASVKVSCKASRYTFTDYNLHWVRQAPGQGLEWMGFIYPYSGGTGYAQKFQGRVTMTVDTSTSTAYMELSSLRSEDTAVYYCARDHRYNEGVSFDYWGQGTTVTVSS
VL: DIQLTQSPSSLSASVGDRATITCRASESVDGFGNSFMNWYQQKPGKAPKLLIYLASNLESGVPSRFSGSGSGTDFTLTISSVQPEDFATYYCQQNNEDPYTFGQGTKLEIK
For the molecule B8, in test [3], the Kd came to 1.93 nM, the koff came out at 0.000116 s⁻¹ and the kon turned out to be 59900 M⁻¹ s⁻¹.

B9: CBD1040 (Fab, V domains shown)
VH: QVQLVQSGAEVKKPGASVKISCKASRYTFTDYNLHWVRQAPGQGLEWIGFIYPYNGGTGYAQKFQGRATLTVDYSTSTAYMELSSLRSEDTAVYYCARDHRYNEGVSFDYWGQGTTLTVSS
VL: DIQLTQSPSSLSASVGDRATITCRASESVDGFGNSFMNWYQQKPGKAPKLLIYLASNLESGVPSRFSGSGSRTDFTLTISSVQPEDFATYYCQQNNEDPYTFGQGTKLEIK
notes: also called h1017-H5/L3 F(ab)
Turning to B9, in test [1], the Kd was 6.07 nM, the koff was determined as 0.00017 s⁻¹ and the kon worked out at 28000 M⁻¹ s⁻¹. Also, in test [2], the Kd is 7.39 nM, the koff came to 0.000103 s⁻¹ and the kon is 14000 M⁻¹ s⁻¹.

B10: CBD1035 (Fab, V domains shown)
VH: QVQLVQSGAEVKKPGASVKISCKASRYTFTDYNLHWVRQAPGQGLEWIGFIYPYNGGTGYAQKFQGRATLTVDTSTSTAYMELSSLRSEDTAVYYCARDHRYNEGVSFDYWGQGTTLTVSS
VL: DIQLTQSPSSLSASVGDRATITCRASESVDGFGNSFMNWYQQKPGKAPKLLIYLASNLESGVPSRFSGSGSGTDFTLTISSVQPEDFATYYCQQNNEDPYTFGQGTKLEIK
notes: also called h1017-H3/L2 F(ab)
As to B10, in test [1], the Kd was determined as 3.07 nM, the koff worked out at 0.000144 s⁻¹ and the kon turned out to be 46900 M⁻¹ s⁻¹. Further, in test [2], the Kd is 8.02 nM, the koff worked out at 9.12e-05 s⁻¹ and the kon is 11400 M⁻¹ s⁻¹.

B11: CBD1038 (Fab, V domains shown)
VH: QVQLVQSGAEVKKPGASVKVSCKASRYTFTDYNLHWVRQAPGQGLEWMGFIYPYNGGTGYAQKFQGRVTMTVDYSTSTAYMELSSLRSEDTAVYYCARDHRYNEGVSFDYWGQGTTVTVSS
VL: DIQLTQSPSSLSASVGDRATITCRASESVDGFGNSFMNWYQQKPGKAPKLLIYLASNLESGVPSRFSGSGSRTDFTLTISSVQPEDFATYYCQQNNEDPYTFGQGTKLEIK
notes: also called h1017-H4/L3 F(ab)
In the case of B11, in test [1], the dissociation constant Kd was 2.31 nM, the koff is 0.000146 s⁻¹ and the kon was 63300 M⁻¹ s⁻¹. In test [2], the Kd turned out to be 7.42 nM, the koff came to 0.00014 s⁻¹ and the kon turned out to be 18900 M⁻¹ s⁻¹.

B12: CBD1039 (Fab, V domains shown)
VH: QVQLVQSGAEVKKPGASVKISCKASRYTFTDYNLHWVRQAPGQGLEWIGFIYPYNGGTGYAQKFQGRATLTVDYSTSTAYMELSSLRSEDTAVYYCARDHRYNEGVSFDYWGQGTTLTVSS
VL: DIQLTQSPSSLSASVGDRATITCRASESVDGFGNSFMNWYQQKPGKAPKLLIYLASNLESGVPSRFSGSGSGTDFTLTISSVQPEDFATYYCQQNNEDPYTFGQGTKLEIK
notes: also called h1017-H5/L2 F(ab)
B12: in test [1], the equilibrium dissociation constant (Kd) is 3.11 nM, the koff worked out at 0.000157 s⁻¹ and the kon came out at 50400 M⁻¹ s⁻¹. Moreover, in test [2], the Kd turned out to be 4.59 nM, the koff was found to be 9.27e-05 s⁻¹ and the kon was determined as 20200 M⁻¹ s⁻¹.

B13: CBD1444 Fab (VL D30S of CBD1033) (Fab, V domains shown)
VH: QVQLVQSGAEVKKPGASVKVSCKASRYTFTDYNLHWVRQAPGQGLEWMGFIYPYNGGTGYAQKFQGRVTMTVDTSTSTAYMELSSLRSEDTAVYYCARDHRYNEGVSFDYWGQGTTVTVSS
VL: DIQLTQSPSSLSASVGDRATITCRASESVSGFGNSFMNWYQQKPGKAPKLLIYLASNLESGVPSRFSGSGSGTDFTLTISSVQPEDFATYYCQQNNEDPYTFGQGTKLEIK
For B13, in test [3], the Kd came to 7.69 nM, the koff amounted to 0.000196 s⁻¹ and the kon is 25500 M⁻¹ s⁻¹.

B14: CBD1036 (Fab, V domains shown)
VH: QVQLVQSGAEVKKPGASVKISCKASRYTFTDYNLHWVRQAPGQGLEWIGFIYPYNGGTGYAQKFQGRATLTVDTSTSTAYMELSSLRSEDTAVYYCARDHRYNEGVSFDYWGQGTTLTVSS
VL: DIQLTQSPSSLSASVGDRATITCRASESVDGFGNSFMNWYQQKPGKAPKLLIYLASNLESGVPSRFSGSGSRTDFTLTISSVQPEDFATYYCQQNNEDPYTFGQGTKLEIK
notes: also called h1017-H3/L3 F(ab)
For the molecule B14, in test [1], the Kd was determined as 6.16 nM, the koff is 0.000207 s⁻¹ and the kon was 33700 M⁻¹ s⁻¹. In test [2], the Kd was 1.68 nM, the koff came to 0.000194 s⁻¹ and the kon worked out at 117000 M⁻¹ s⁻¹.
